Changes are numbered by the printed parent chain. Names and notes keep the numbering of the source.
Experiments:
[1] = molecular target: T1, IM30-Venus, Venus-labeled Synechocystis IM30 (Synechocystis sp. PCC 6803, UniProt Q55707 1-267); assay: FRET or BRET; 0.2 µM purified CFP/Venus labeled IM30 rings (copurified from mixed cell pellets, 27% CFP and 63% Venus w/w), excitation 420 nm, RT, with 0-1000 µM DOPG liposomes; details: both partners purified
T1 construct: IM30 (VIPP1) of Synechocystis sp; PCC 6803; Venus fragment ligated into pRSET SynIM30 plasmid; purified as the His-tagged WT, so a His tag is likely present; also called Venus-labeled IM30 monomers; source: E. coli, copurified with IM30-CFP after mixing cell pellets prior to cell lysis
T1 sequence (looked up): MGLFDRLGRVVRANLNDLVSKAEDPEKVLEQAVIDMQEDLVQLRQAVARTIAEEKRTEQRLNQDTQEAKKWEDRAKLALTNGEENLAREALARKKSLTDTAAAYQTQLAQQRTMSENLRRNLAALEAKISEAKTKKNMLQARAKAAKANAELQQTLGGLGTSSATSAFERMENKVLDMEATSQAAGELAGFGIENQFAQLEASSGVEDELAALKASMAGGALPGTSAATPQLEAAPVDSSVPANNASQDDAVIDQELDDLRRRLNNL

[2] = molecular target: the molecule itself; assay: SEC; Superose12 10/300 GL, 20 mM HEPES pH 7.6 with 0, 50, 100, 150 or 300 mM NaCl, 8 °C; IM30* at suitable NaCl concentrations
[3] = molecular target: the molecule itself; assay: cross-linking; disulfide between Cys227 of two protomers; SDS-PAGE of the purified A227C mutants in absence of reducing agents
[4] = molecular target: the molecule itself; assay: atomic force microscopy; ~0.5 µM IM30 WT adsorbed on mica, 10 mM Tris or HEPES, 150 mM KCl, 25 mM MgCl2, pH 7.6; imaged in buffer at ~30 °C
[5] = molecular target: the molecule itself; assay: SEC-MALS; Superdex 200 Increase 10/300 GL, 25 mM HEPES pH 7.5, 125 mM NaCl, 5% glycerol (w/w), RT

B1: IM30-CFP, CFP-labeled Synechocystis IM30 (natural protein, Synechocystis sp. PCC 6803, UniProt Q55707 1-267, looked up)
chain: T1 sequence (looked up)
notes: IM30 (VIPP1) of Synechocystis sp; PCC 6803; CFP fragment ligated into pRSET SynIM30 plasmid; purified as the His-tagged WT, so a His tag is likely present; also called CFP labeled IM30 monomers; source: E. coli, copurified with IM30-Venus after mixing cell pellets prior to cell lysis
[1]
  binding result: binds

B2: IM30* (E83A, E84A, F168A, E169A, R170A, M171A), oligomerization-impaired mutant of Synechocystis IM30 (natural protein, Synechocystis sp. PCC 6803, UniProt Q55707 1-267, looked up)
chain: T1 sequence (looked up) with E83A, E84A, F168A, E169A, R170A, M171A
notes: IM30 (VIPP1) of Synechocystis sp; PCC 6803, full length, with six alanine substitutions made by site-directed mutagenesis; For SEC-SAXS the protein was heated to 50 °C, cooled slowly and buffer-exchanged by SEC before the run; also called IM30* dimers
[2]
  stoichiometry N: 2

B3: IM30*_A227C (E83A, E84A, F168A, E169A, R170A, M171A, A227C) (natural protein, Synechocystis sp. PCC 6803, UniProt Q55707 1-267, looked up)
chain: T1 sequence (looked up) with E83A, E84A, F168A, E169A, R170A, M171A, A227C
notes: IM30 (VIPP1) of Synechocystis sp; PCC 6803, full length, the six alanine substitutions of IM30* and A227C in the linker between helix 6 and 7; also called A227C mutant of IM30*
[3]
  binding result: binds

B4: IM30_A227C, A227C mutant of Synechocystis IM30 WT (natural protein, Synechocystis sp. PCC 6803, UniProt Q55707 1-267, looked up)
chain: T1 sequence (looked up) with A227C
notes: IM30 (VIPP1) of Synechocystis sp; PCC 6803, full length, with A227C; the methods print '(A272C)' in brackets after the name IM30_A227C, the results and the legend say A227C; also called A227C mutant of IM30 WT
[3]
  binding result: binds

B5: inner membrane-associated protein of 30 kDa (IM30) wild type, N-terminally His-tagged, from Synechocystis sp. PCC 6803 (natural protein, UniProt Q55707 1-267, looked up)
chain: T1 sequence (looked up)
notes: IM30 (VIPP1) of Synechocystis sp; PCC 6803, full-length wild type; also called IM30 WT; VIPP1
[4]
  binding result: binds

B6: IM30_H3b-7 (amino acids 147-267), WT fragment of Synechocystis IM30 (domain or fragment, Synechocystis sp. PCC 6803, UniProt Q55707 147-267, looked up)
chain: KANAELQQTLGGLGTSSATSAFERMENKVLDMEATSQAAGELAGFGIENQFAQLEASSGVEDELAALKASMAGGALPGTSAATPQLEAAPVDSSVPANNASQDDAVIDQELDDLRRRLNNL
notes: IM30 (VIPP1) of Synechocystis sp; PCC 6803, amino acids 147-267 (helices 3b-7); also called helices 3b-7; intrinsically disordered C-terminus
[5]
  stoichiometry N: 2
